Entries after “also recorded” stand apart in the source; their conditions may differ.
Key:
CDT-2 = test: Yeast cell-based xylodextrin uptake assay; set-up: species or system Neurospora crassa; conditions: starting concentration 100 μM, 30 minutes
Experimental: (§1) S. cerevisiae was grown in an optimized minimum medium (oMM) lacking uracil into late log phase. The oMM contained 1.7 g/L YNB (Sigma, Y1251), 2-fold appropriate CSM dropout mixture, 10 g/L (NH4)2SO4, 1 g/L MgSO4.7H2O, 6 g/L KH2PO4, 100 mg/L adenine hemisulfate, 10 mg/L inositol, 100 mg/L glutamic acid, 20 mg/L lysine, 375 mg/L serine and 100 mM 4-morpholineethanesulfonic acid (MES), pH 6.0 (Lin et al., submitted). Cells were then harvested and washed three times with assay buffer (5 mM MES, 100 mM NaCl, pH 6.0) and resuspended to a final OD600 of 40. Substrate stocks were prepared in the same assay buffer at a concentration of 200 μM. Transport assays were initiated by mixing equal volumes of the cell suspension and the substrate stock. Reactions were incubated at 30° C. with continuous shaking for 30 minutes. Samples were centrifuged at 14,000 rpm at 4° C. for 5 minutes to remove yeast cells. 400 μL of each sample supernatant was transferred to an HPLC vial containing 100 μL of 0.5 M NaOH, and the concentration of the remaining substrate was measured by HPAEC as described below.
as §1, with “(Lin et al. 2014). Cells were” for “(Lin et al., submitted). Cells were”, “30 minutes. […] 400 μL” for “30 minutes. Samples were centrifuged at 14,000 rpm at 4° C. for 5 minutes to remove yeast cells. 400 μL”, “100 μL 0.5 M” for “100 μL of 0.5 M”

[1] = Xylose reductase assay of NcXR with xylodextrin; format: biochemical, Neurospora crassa; conditions: in vitro, xylodextrins with degrees of polymerization 2 to 4; products up to xlt3
Experimental: For the xylose reductase assays of S. stipitis XR and N. crassa XR, 1 μM of purified enzyme was incubated with 0.06% xylodextrin and 2 mM NADPH in 1×PBS at 30° C. Reactions were sampled at 30 min and quenched by heating at 99° C. for 10 min. The products were analyzed by LC-QToF as described below.
For the xylose reductase assays of NcXR, 1 μM of purified enzyme was incubated with 0.06% xylodextrin and 2 mM NADPH in 1×PBS at 30° C. Reactions were sampled at 30 min and quenched by heating at 99° C. for 10 min. The products were analyzed by LC-QToF as described below.

[2] = β-xylosidase assay of GH43-2 and GH43-7 with xylosyl-xylitol and xylobiose; format: biochemical, Neurospora crassa; conditions: purified enzyme
Experimental: For the β-xylosidase assay of GH43-2 with xylodextrins, 0.5 μM of purified enzyme was incubated with 0.1% in-house prepared xylodextrin or 1 mM xylobiose (Megazyme) in 1×PBS at 30° C. Reactions were sampled at 30 min and quenched by adding 5 volumes of 0.1 mM NaOH. The products were analyzed by HPAEC as described below. For pH profiling, acetate buffer at pH 4.0, 4.5, 5.0, 5.5, 6.0, and phosphate buffer at 6.5, 7.0, 7.5, 8 were added at a concentration of 0.1 M. For the β-xylosidase assay of GH43-2 and GH43-7 with xylosyl-xylitol, 10 μM of purified enzyme was incubated with 4.5 mM xylosyl-xylitol and 0.5 mM xylobiose in 20 mM MES buffer, pH=7.0, and 1 mM CaCl2 at 30° C. Reactions were sampled at 3 hours and quenched by heating at 99° C. for 10 min. The products were analyzed by ion-exclusion HPLC as described below.
For the β-xylosidase assay of GH43-2 with xylodextrins, 0.5 μM of purified enzyme was incubated with 0.1% in-house prepared xylodextrin or 1 mM xylobiose (Megazyme) in 1×PBS at 30° C. Reactions were sampled at 30 min and quenched by adding 5 volumes of 0.1 M NaOH. The products were analyzed by HPAEC as described below. […] The products were analyzed by ion-exclusion HPLC as described below.

[3] = Activity of bacterial GH43-7 enzymes on xylobiose or xylosyl-xylitol; format: biochemical; conditions: purified enzyme; for β-xylosidase activity: xylobiose (X2) substrate; for xylosyl-xylitol hydrolase activity: xylosyl-xylitol (xlt2) substrate
Experimental: Experiments were also conducted to further explore potential xylosyl-xylitol hydrolase activity of other β-xylosidases. […] To see if these proteins actually have xylosyl-xylitol hydrolase activity, purified B. subtilis GH43-7 and purified E. coli GH43-7 were incubated with xylobiose (X2) or xylosyl-xylitol (xlt2) and their activity on these substrates was analyzed. […] In summary, two GH43 enzymes from bacteria Bacillus subtilis (AAB41091.1) and Escherichia coli (WP_000406872.1) were tested and confirmed to both cleave xylosyl-xylitol.
S. cerevisiae strains transformed with pRS423_GH43-2, pRS423_GH43-7, or pRS313_NcXR were grown in oMM lacking histidine with 2% glucose until late log phase before harvesting by centrifugation. E. coli strains BL21DE3 transformed with pET302_BsGH43-7 or pET302_EcGH43-7 were grown in TB medium, induced with 0.2 mM IPTG at OD600 of 0.8, and harvested by centrifugation 12 hours after induction. Yeast or E. coli cell pellets were resuspended in a buffer containing 50 mM Tris-HCl, 100 mM NaCl, 0.5 mM DTT, pH 7.4 and protease inhibitor cocktail (Pierce). Cells were lysed with an Avestin homogenizer, and the clarified supernatant was loaded onto a HisTrap column (GE Healthcare). His-tagged enzymes were purified with an imidazole gradient, buffer-exchanged into 20 mM Tris-HCl, 100 mM NaCl, pH 7.4, and concentrated to 5 mg/mL.

For `OC1OC[C@@H](O[C@@H]2OC[C@@H](O[C@@H]3OC[C@@H](O[C@@H]4OC[C@@H](O)[C@H](O)[C@H]4O)[C@H](O)[C@H]3O)[C@H](O)[C@H]2O)[C@H](O)[C@H]1O` (stereo partly shown) [xylotetraose], which “import into S. cerevisiae strains expressing cdt-2” value (CDT-2) is on record?
The value was “able to import”.

With `OC1OC[C@@H](O[C@@H]2OC[C@@H](O)[C@H](O)[C@H]2O)[C@H](O)[C@H]1O` (stereo partly shown) [xylobiose] as the molecule, how does the “import into S. cerevisiae strains expressing cdt-2” value (CDT-2) read?
Its value is “able to import”.

With `OC1OC[C@@H](O[C@@H]2OC[C@@H](O[C@@H]3OC[C@@H](O)[C@H](O)[C@H]3O)[C@H](O)[C@H]2O)[C@H](O)[C@H]1O` (stereo partly shown) [xylotriose] as the molecule, how does the “import into S. cerevisiae strains expressing cdt-2” value (CDT-2) read?
Its value is “able to import”.

B1: XYR-1: xylose reductase from Neurospora crassa (protein)
chain: MVPAIKLNSGFDMPQVGFGLWKVDGSIASDVVYNAIKAGYRLFDGACDYGNEVECGQGVARAIKEGIVKREELFIVSKLWNTFHDGDRVEPIVRKQLADWGLEYFDLYLIHFPVALEYVDPSVRYPPGWHFDGKSEIRPSKATIQETWTAMESLVEKGLSKSIGVSNFQAQLLYDLLRYAKVRPATLQIEHHPYLVQQNLLNLAKAEGIAVTAYSSFGPASFREFNMEHAQKLQPLLEDPTIKAIGDKYNKDPAQVLLRWATQRGLAIIPKSSREATMKSNLNSLDFDLSEEDIKTISGFDRGIRFNQPTNYFSAENLWIFG
modifications: N. crassa
Which “production of xylosyl-xylitol oligomers from xylodextrin substrates” value [1] does the source give for B1 here?
Its value is “able to directly produce xylosyl-xylitol oligomers; also recorded: generated xylosyl-xylitol products”.

B2: GH43-7: second putative intracellular β-xylosidase from N. crassa with xylosyl-xylitol hydrolase activity (protein)
chain: MPLVKNPILPGFNPDPSVLRVGQDYYIATSTFEWYPGVQIHHSTDLANWTLLTRPLNRKSQLDMRGDPDSCGVWAPCLSHDGDKFWLVYTDVKRKDGSFKDAHNFIVWADKIDGEWSDPVYVNSSGFDPSLFHDPDSGKKYFVNMLWDHRRRPLLFAGIAVQEWDAKTKKLVGERKNVYQGTELALAEAPHVYKRNGWYYLLIAEGGTGYEHACTLARSKDIWGPYKTHPEKHVLTSKDHPRAALQRAGHGDIVEIEDGRTYLVHLTGRPTTQLRRCVLGRETAIQECYWKDDWLYVKNGPVPSLWVDLLGERDESKYWEEKRYTFKDGLHKDFQWLRTPETERIFNVKDGKLTLIGREAIGSWFEQALVARRQEHFSYDAETVIDFSPTDERQFAGLTAYYCRYNFFYLTVTAHSDGQRELLIMSSEASWPIGNLNTPYVPYVQIPNEGKVKLALTIRGNQLQFYYAVLDSGDEELKKIGPVFDASIVSDECGGHQQHGSFTGAFVGVAASDLNGLAAEAKFDYLLYKPVKNQQDAYVRDNE
modifications: N. crassa
What does the source list for B2?
β-xylosidase activity ([2]; xylobiose substrate): weak β-xylosidase activity; hydrolysis of xylosyl-xylitol into xylose and xylitol ([2]; xylosyl-xylitol substrate): rapidly hydrolyzed

B3: B. subtilis GH43-7: GH43 enzyme from bacteria Bacillus subtilis, homologous to GH43-7 (protein, listed as Bacillus subtilis)
chain: MKITNPVLKGFNPDPSICRAGEDYYIAVSTFEWFPGVQIHHSKDLVNWHLVAHPLQRVSQLDMKGNPNSGGVWAPCLSYSDGKFWLIYTDVKVVDGAWKDCHNYLVTCETINGDWSEPIKLNSSGFDASLFHDTDGKKYLLNMLWDHRIDRHSFGGIVIQEYSDKEQKLIGKPKVIFEGTDRKLTEAPHLYHIGNYYYLLTAEGGTRYEHAATIARSANIEGPYEVHPDNPILTSWHDPGNPLQKCGHASIVQTHTDEWYLAHLTGRPIHPDDDSIFQQRGYCPLGRETAIQKLYWKDEWPYVVGGKEGSLEVDAPSIPETIFEATYPEVDEFEDSTLNINFQTLRIPFTNELGSLTQAPNHLRLFGHESLTSTFTQAFVARRWQSLHFEAETAVEFYPENFQQAAGLVNYYNTENWTALQVTHDEELGRILELTICDNFSFSQPLNNKIVIPREVKYVYLRVNIEKDKYYYFYSFNKEDWHKIDIALESKKLSDDYIRGGGFFTGAFVGMQCQDTGGNHIPADFRYFRYKEK
With B3 as the molecule, how does the β-xylosidase activity [3] read?
Its β-xylosidase activity is “exhibited β-xylosidase activity”.

And the xylosyl-xylitol hydrolase activity [3]?
The xylosyl-xylitol hydrolase activity was “exhibited xylosyl-xylitol hydrolase activity”.

B4: E. coli GH43-7: GH43 enzyme from bacteria Escherichia coli, homologous to GH43-7 (protein, listed as Escherichia coli)
chain: MEITNPILTGFNPDPSLCRQGEDYYIATSTFEWFPGVRIYHSRDLKNWSLVSTPLDRVSMLDMKGNPDSGGIWAPCLSYADGKFWLLYTDVKIVDSPWKNGRNFLVTAPSIEGPWSEPIPMGNGGFDPSLFHDDDGRKYYIYRPWGPRHHSNPHNTIVLQAFDPQTGTLSPERKTLFTGTPLCYTEGAHLYRHAGWYYLMVAEGGTSYEHAVVVLRSKNIDGPYELHPDVTMMTSWHLPENPLQKSGHGSLLQTHTGEWYMAYLTSRPLRLPGVPLLASGGRGYCPLGRETGIARIEWRDGWPYVEGGKHAQLTVKGPQVAEQPAAVPGNWRDDFDASSLDPELQTLRIPFDDTLGSLTARPGFLRLYGNDSLNSTFTQSTVARRWQHFAFRAETRMEFSPVHFQQSAGLTCYYNSKNWSYCFVDYEEGQGRTIKVIQLDHNVPSWPLHEQPIPVPEHAESVWLRVDVDTLVYRYSYSFDGETWHTVPVTYEAWKLSDDYIGGRGFFTGAFVGLHCEDISGDGCYADFDYFTYEPV
Which β-xylosidase activity [3] does the source give for B4 here?
The β-xylosidase activity was “exhibited β-xylosidase activity”.

And the xylosyl-xylitol hydrolase activity [3]?
Its xylosyl-xylitol hydrolase activity is “exhibited xylosyl-xylitol hydrolase activity”.

From patent US9670515B2, “Methods for production of xylosylxylitol oligomers” (The Regents of the University of California, priority 2014, dated 2017)
